Measured values reported in paper PMC12839305.

Biological target: T1, RVFV glycoprotein Gn head domain (154–469 aa) (Rift Valley fever virus), P21401
T1 chain: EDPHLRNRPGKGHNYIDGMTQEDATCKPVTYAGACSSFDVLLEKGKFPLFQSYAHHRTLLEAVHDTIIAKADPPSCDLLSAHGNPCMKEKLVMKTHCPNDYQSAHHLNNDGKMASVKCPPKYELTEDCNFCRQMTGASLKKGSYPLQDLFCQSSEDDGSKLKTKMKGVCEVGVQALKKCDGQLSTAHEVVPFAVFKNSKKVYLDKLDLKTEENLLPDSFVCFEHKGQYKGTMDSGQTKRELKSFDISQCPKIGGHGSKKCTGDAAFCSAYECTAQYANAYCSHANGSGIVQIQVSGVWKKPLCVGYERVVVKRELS
Assay: BLI
Details: modification not given

## HVCLPSQFKCTNTNRCIPGIFRCNGQDNCGDGEDERDCPE [23-Fc]
  Kd: 260 nM
